Assay results reported in patent US20240368303A1 (ZHEJIANG SHIMAI PHARMACEUTICAL, published 2024).

Experiments:
[1] = molecular target: T1, recombinant human GPC3 (full-length extracellular domain) (human, UniProt P51654 25-559); experiment: ELISA, GPC3 coated at 50 ng per well, anti-FLAG-HRP detection
T1 construct: extracellular domain; Bought protein coated on ELISA plates; also called human GPC3 protein
Protocol: The hexahistidine-tagged 1A1 Fab and 6A4 Fab were expressed in E. coli strain HB2151 and purified from the soluble fraction of periplasm by using the Ni-NTA resin. Then ELISA was performed by using standard protocols to measure binding affinity to recombinant human GPC3 (full-length extracellular domain). Briefly, the recombinant human GPC3 (ACROBiosystems) was coated on Corning EIA/RIA high-binding 96-well plates (Corning Inc.) at 50 ng per well overnight at 4° C. and blocked with 3% nonfat milk in PBS (pH7.4). Fivefold serially diluted antibodies were added and incubated at room temperature for 2 h. The plates were washed with PBS containing 0.05% Tween 20. Bound antibodies were detected by HRP-conjugated anti-FLAG tag antibody (Sino Biological). The assay was developed at room temperature with TMB substrate (Solarbio) and OD value was measured at 450 nm with a microplate reader.

[2] = molecular target: T1, recombinant human GPC3 (full-length …); experiment: ELISA, GPC3 coated, biotinylated antibody, streptavidin-HRP detection
Protocol: (§1) ELISA was performed according to standard protocols, to determine binding affinity of anti-GPC3 1A1 mAb to recombinant GPC3 from human, cynomolgus, and mouse and anti-GPC3 6A4 mAb to recombinant human GPC3. Briefly, recombinant GPC3 (AcroBiosystems) was coated on Corning EIA/RIA high-binding 96-well plates (Corning Inc.) at 50 ng per well overnight at 4° C. and blocked with 3% nonfat milk in PBS (pH7.4). Fivefold serially diluted biotinylated antibodies were added and incubated at room temperature for 2 h. The plates were washed with PBS containing 0.05% Tween 20. Bound antibodies were detected by HRP-conjugated streptavidin (Sino Biological). The assay was developed at room temperature with TMB substrate (Solarbio) and monitored at 450 nm with a microplate reader. The half-maximal binding (EC₅₀) was calculated by fitting the data to the Langmuir adsorption isotherm.

[3] = molecular target: T2, recombinant mouse GPC3 (mouse, UniProt Q8CFZ4 25-558, limits assumed); experiment: as above
T2 construct: Bought protein; also called mouse GPC3 protein
T2 sequence (Q8CFZ4 25-558 limits assumed): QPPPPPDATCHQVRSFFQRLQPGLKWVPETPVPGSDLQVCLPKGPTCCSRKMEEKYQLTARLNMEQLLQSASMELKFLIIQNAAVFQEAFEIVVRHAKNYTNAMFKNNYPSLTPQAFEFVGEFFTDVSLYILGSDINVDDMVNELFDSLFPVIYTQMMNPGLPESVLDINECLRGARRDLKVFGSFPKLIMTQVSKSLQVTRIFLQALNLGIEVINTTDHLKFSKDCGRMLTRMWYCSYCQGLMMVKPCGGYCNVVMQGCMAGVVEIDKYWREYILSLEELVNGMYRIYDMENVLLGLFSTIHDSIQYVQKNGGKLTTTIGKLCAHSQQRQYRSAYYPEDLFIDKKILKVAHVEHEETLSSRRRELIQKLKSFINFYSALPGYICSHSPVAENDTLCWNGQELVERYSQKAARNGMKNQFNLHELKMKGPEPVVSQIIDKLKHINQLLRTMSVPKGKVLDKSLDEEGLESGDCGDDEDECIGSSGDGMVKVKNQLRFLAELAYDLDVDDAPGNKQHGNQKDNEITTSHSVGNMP
Protocol: as §1

[4] = molecular target: T3, recombinant cynomolgus GPC3 (cynomolgus, UniProt A0A2K5VK50 24-558); experiment: as above
T3 construct: Bought protein; also called cynomolgus GPC3 protein
Protocol: as §1

| Binder | EC50 [1] [nM] | EC50 [2] [nM] | EC50 [3] [nM] | EC50 [4] [nM] |
| --- | --- | --- | --- | --- |
| 6A4 Fab (Fab, V domains shown, Human Fab from a phage library, kappa light chain, hexahistidine-tagged, made in E. coli HB2151, detected with anti-FLAG antibody; also called Fab clone 6A4) VH: EVQLVQSGAEVKKPGASVKVSCKASGYTFTSYAMHWVRQAPGQRLEWMGWINAGNGNTKYSQKFQGRVTITRDTSTSTAYMELRSLRSDDTAVYYCARDPSHWGQGTLVTVSS VL: not shown | ~234 | – | – | – |
| anti-GPC3 6A4 mAb (antibody, V domains shown, Intact human IgG1 kappa) VH: EVQLVQSGAEVKKPGASVKVSCKASGYTFTSYAMHWVRQAPGQRLEWMGWINAGNGNTKYSQKFQGRVTITRDTSTSTAYMELRSLRSDDTAVYYCARDPSHWGQGTLVTVSS VL: not shown | – | 4.5 | – | – |
| 1A1 Fab (Fab, V domains shown, Human Fab from a phage library, kappa light chain, hexahistidine-tagged, made in E. coli HB2151, detected with anti-FLAG antibody; also called Fab clone 1A1; anti-GPC3 1A1 Fab) VH: EVQLVQSGAEVKKPGASVKVSCKASGYTFTSYGISWVRQAPGQGLEWMGWISAYNGNTNYAQKLQGRVTMTTDTSTSTAYMELRSLRSDDTAVYYCARAGTPTQILRYFDWLSQPFDYWGQGTLVTVSS VL: EIVLTQSPLSLPVTLGQPASISCRSSQSLVYSDGNTYLNWFHQRPGQSPRRLIYKVSNRDSGVPERFSGSGSGTDFTLKISRVEAEDVGVYYCMQSTHWPLTFGGGTKVEIK | ~190 | – | – | – |
| anti-GPC3 1A1 mAb (antibody, human IgG1, kappa, V domains shown, Intact human IgG1 kappa, about 150 kDa on non-reducing SDS-PAGE) VH: EVQLVQSGAEVKKPGASVKVSCKASGYTFTSYGISWVRQAPGQGLEWMGWISAYNGNTNYAQKLQGRVTMTTDTSTSTAYMELRSLRSDDTAVYYCARAGTPTQILRYFDWLSQPFDYWGQGTLVTVSS VL: EIVLTQSPLSLPVTLGQPASISCRSSQSLVYSDGNTYLNWFHQRPGQSPRRLIYKVSNRDSGVPERFSGSGSGTDFTLKISRVEAEDVGVYYCMQSTHWPLTFGGGTKVEIKR | – | 0.6 | 1.12 | 0.58 |
